Assay results taken from the nanobody polyreactivity screen of Harvey et al. (2022).

Assay: yeast display, Sf9 membrane polyspecificity reagent, FACS + sequencing; frameworks hold sequencing errors
Procedure, shortened: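 Galactose-induced (36–48 hours) yeast carrying a synthetic nanobody display library were exposed to 10% biotinylated, detergent-solubilized Sf9 membrane reagent at 4 °C for 1 hour. FACS followed streptavidin microbead enrichment, using low and high (top ~1%) gates for expression (anti-HA) and reagent binding (streptavidin). Colony PCR, MiSeq 2 × 250 sequencing and CDR-length filtering followed. Labels for polyreactivity reflect the gate of origin.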

Sequence | polyreactivity (PSR sort gate)
QVQLVESVGGLVQAGGSLRLSCAASGSTFVRYTMGWYRQAPGKERALVAAISWNGGRTYYADSVKGRFTISRDNTKNTVYLQMNSLKPEDTAVYYCNAVRLVYTGNSDYGYWGQGTQVTVSS | high polyreactivity
QVQLVESVGGLVQAGGSLRLSCAASGSTFWFYTMGWYRQAPGKERELVATITSGGSTNYADSVKGRFTISRDNAKNTVYLQMNSLKPEDTAVYYCAASSVLTNHDYWGQGTQVTVSS | low polyreactivity
QVQLVESVGGLVQAGGSLRLSCAASGSTFYHYAMGWYRQAPGKVRELVASISHSGGRTFYADSVKGRFTISRDNAMNTVYLQMNSLKPEDTAVYYCAADWRTRYDYWGQGTQVTVSS | low polyreactivity
QVQLVESVGGLVQAGGSLRLSCAASGSTFYPNAMGLYRQAPGKESELVAAITSGGSTYYADSVKGRFTISRDNAKNTVYLQMNTLKPEDTAVYYCAAQRRYHLDTTIGPGNYYYWGQGTQVTVSS | low polyreactivity
QVQLVESVGGLVQAGGSLRLSCAASGSTIDGYAMGWYRQAPGKEREFVAAISFSSASTYYADSVKGRFTISRDNAKNTVYLQMNSLKPEDTAVYYCNADFFDSGGSIEYDSWGQGTQVTVSS | low polyreactivity
QVQLVESVGGLVQAGGSLRLSCAASGTFSPYAMGWYRQAPGKERELVAVITSNTGRTYADSVKGRFTISRDNAKNSVYLQMNSLKPEDTAVYYCAARSTYRHWYRTGSRFDYWGQGTQVTVSS | low polyreactivity
QVQLVESVGGLVQAGGSLRLSCAATRSIFKIMRWYRQAPGKERELVAAISSSVGNTYYADSVKGRFTISRDNAKNTVYLQMNSLKPEDTAVYYCAAQSKYYQYYSWGQGTQVTVSS | high polyreactivity
QVQLVESVGGLVQAGGSLRLSCASSGNIFGAYAMGWYRQAPGKERELVAAIDSGSTNYADSVKGRFTISRDNAKNTVSLQMNSLKPEDTAVYYCNTKDQDVKVHHTSNTDDYWGQGTQVTVSS | low polyreactivity
QVQLVESVGGLVQAGGSLRLSCDASGSTFTSYTMGWYRPAPGKERELVAAISRSDGDRTYYADSVKGRFTISRDNAKNTVYLQMNSLKPEDTAVYYCAAEVTPRIVRYYYWGQGTQVTVSS | high polyreactivity
QVQLVESVGGLVQAGGSLRLSCPASGITFEQYAMGWYRQAPGKEREWVAAISSNGGITFYADSVKGRFTISRDNAKNTVYLQMNSLKPEDTAVYYCAARLCVTYPYIAYDYWGQGTQVTVSS | high polyreactivity
QVQLVESVGGLVQAGGSLRLSCPASGSIFGPYAMGWYRQAPGKERELVAAMTIGGDNTYYADSVKGRFTISRDNAKNTVYLQMNSLKPEDTAVYYCAAKYYGGKPHYYEYYYWGQGTQVTVSS | low polyreactivity
QVQLVESVGGLVQAGGSLRLSFAASGRTFVWYVMGWYSQAPVKERELVAAISLRGGTTYYADSVKGRFTISRDNAKNTVYLQMNSLKPEDTAVYYCAIAGIRHVTSKFKGYHFGYWGQGTQVTVSS | low polyreactivity
QVQLVESVGGLVQAGGSLRLSSAASGRIFSYKVMGWYRQAPGKESELVAAITSNDGSTYYADSVKGRFTISRDNAKNTVYLQMNSLKPVDTADYYCNADYGPVSLNEPFRDDYWGQGTQVTVSS | low polyreactivity
QVQLVESVGGLVQAGGSLRLSSAASGRILGYYAMGWYRQAPGKERELVAAISRACSTNYADSVKGRFTISRDNAKNTVYLQMNSLKPEDTAVYYCAARPYRRGYNYWGQGSQVTVSS | high polyreactivity
QVQLVESVGGLVQAGGSLRLTCAASGSIFYVYAMGWYRQAPGKERELVANIRDGGITYADSVKGRFTISRDNAKNTVYLQMNSLKPEDTAVYYCARDDTSPGYGDQSSNAAYYYRGQGTQVTVSS | low polyreactivity
QVQLVESVGGLVQAGGSLRLTCAASGSTFWLNDMGWYRQATGKERELVAAISFSGASTYYADSVKGRFTISRDNAKNTVYLQMNILKPEDTAVYYCNAGWGRAEFLSEAVFDSRMYYWGQGTQVTVSS | low polyreactivity
QVQLVESVGGLVQEGGSLRLSSAATGYTFDVYAMGWSRQAPGKERELVAAISTRGTRTYYADSEKGRFTISRDNAKNTVYLQMNSLKPEDTAVYYCAAYVYDGETESRFDYWGQGTQVTVSS | high polyreactivity
QVQLVESVGVLVQAGGSLRLSCAASGLIIDGYAMGWYRQAPGKERELVATITVSGTSTYYADSVKGRFTISRDNEKNTVYLQMNSLIPEDTAVYYCATDRNYGYYFVEYDHDYWGQGTQVTVSS | low polyreactivity
QVQLVESVRGVVQAGGSLRLSCASSVFTFRWYAMGWFRQAPGKESELVADITRHGGSTYYADSVKGRFTISRDNAKNTVYLQMNSLKPEDTAVYYCAADLSWYDWEDDYWGQGTQVTVSS | low polyreactivity
QVQLVESVRRLVQAGGSLRLSCAASGSIYYPYAMGWYRQAPGKEMELVAAITGHGGSTYYADSVKGRFTISRDNAKNTVYLQMNSLNPEDTAVYYCATGGYQPVLHRGYYRFNYWGQGTQVTVSS | low polyreactivity
QVQLVESVVGLDQAGGSHRLSCAASGSIFATYAMGWYRHAPGKERELVAAITTRGGSTYYADSVKGRFTISRDNAKNTVYLLMYSLKPEDTAVYFCNALRWWSYGLNYCGQGTQVTVSS | high polyreactivity
QVQLVESVVGLDQAGGSLSLSCAASAIILYYYSMGWYRQAPGKEREVVAAISSGGNTYYADSVKGRFTISRDNAKNTVYFQMNSLKPEDTAVYYCAAGNVIGGEYDYWGLGTQVTVSS | low polyreactivity

Sequence | polyreactivity (PSR sort gate)
QVQLVESVVGLVQAGCSLRLSCDASGFIFYYYTMGWYRQATGKERELVAAISRSGGRTYYADSVKGLFTISRDYAKNTVYLQMNSMKPDDTAVYYCAADTPYQTPPQQYVEYDYWGQCTQVTVSS | high polyreactivity
QVQLVESVVGLVQAGGSLRLSCAASGRTFRVNAMGWYRQAPGKERELVAAITWSGGTTYYADSVKGRFTISRDNAKNTVYLQMNSLKPEDTAVYYCAADRFWYGSWYDYWGHGTQVTVSS | high polyreactivity
QVQLVESVVGLVQAGGSLRVSCAAYGRTFWYYPMGWYRQAPGKERELVAGITFTGGRTYYADSVKGRFTISRDNAKHTVYLQMNSLKPEDTAVYYCAAAGLVVGRKDRDGYWGLGTQVTVSS | low polyreactivity
QVQLVESWAGLVQAGGSLRLSCAASGSTFSGYTMGWYRQAPGKEREFVAAISSRGGSTYYADSVKGRFTISRDNAKNTVYLHMNSLKPEDTAVYYCAAKVWARVDGRQFRMEYWGQGTQVSVSS | high polyreactivity
QVQLVESWGGLVQAAGSLRLSCAASGFIFRYNTMGSSRQAPAKERESVAAFSVSGARTYYADSVKGRFTISRDNAKNTVYLLMNSLKTEDTAVYYCNRRYPFYSRYNNDYWGQGTQVTVSS | high polyreactivity
QVQLVESWGGLVQAGASLRLSSAASGSIFGSYAMGSYRQAPGKERQLVAAITGIGGSTYYADSVKGRFTITRDNAKNTVYLQLNSLKPEDTAVYYCATRVRYRAPVVRGNYWGQGTQVTVSS | high polyreactivity
QVQLVESWGGLVQAGCSLRISCAASGSTLYSYAMGWNIQAPGKERELVAAINSGSNTYYADSVKGRFTISRDNAKNTVYLQMNSLKPEDTAVYYCAAKGIIYTGYDGARRAYGYWGQGTQVTVSS | high polyreactivity
QVQLVESWGGLVQAGGRLRLSCAASGRTFPGYAMGWYRPAPRKERELVAGISYRGGSTYYADSVKGRFTISRDNAKYTDYLQMNSLNPEDTAVYYCARDYSRHKGDYWGQGTQVTVSS | low polyreactivity
QVQLVESWGGLVQAGGSHRLSCDASGRIFTRNAMGWYRQAHGKERELVAAISYDCGSTYYADSVKVRFTISRDNAKNTVYLQMNSLKPEDTAVYYCATDLYLHGYEYWGQGTQVTVSS | high polyreactivity
QVQLVESWGGLVQAGGSLRLSCAASGFIFDNNALGWYRQAPGKERELVADISRSGGSTYADSVKGRFTISRDNAKNTVYFQMNSLKAEDTAVYYCAKDFQGRRPPKEPSAFYYWGQGTQVTVSS | low polyreactivity
QVQLVESWGGLVQAGGSLRLSCAASGFTFRYYAMGWYRQAPGKERELVAAITGSGTRTYYADSVKGRFTISRDNAKNTVYLQMNSLKPEDTAVYYCNAPRQPRWFDYWGQGTQVTVSS | high polyreactivity
QVQLVESWGGLVQAGGSLRLSCAASGFTFTRNAMGWYRQAPGKERELVAAISKSGGRTYYADSVKGRFTISRDNAKYNVYLQMNSLKPEDTAVYYCAVVPRPFGLGSDYDYWGQGTQVTVSS | high polyreactivity
QVQLVESWGGLVQAGGSLRLSCAASGIIFQNYDMGWYRQARGKERELVAAITGSGGSTYYADSVKGRFTISRDNAKNTVYLQMNSLKPEDTAVYYCNAVWEYYGKSDYWGQGTQVTVSS | low polyreactivity
QVQLVESWGGLVQAGGSLRLSCAASGLTFNYYAMGWYRQAPGKERELVAAITSSGGSTYYADSVKGRFTISRDNAKNTVYLQMNSLKPEDTAVYYCNADVYAHRYIYGFDYWGQGTQVTVSS | high polyreactivity
QVQLVESWGGLVQAGGSLRLSCAASGRIFHRYAMGWYRQAPGKEREFVAAITYSTGTTYYADSVKGRFTISRDNAKITVYLQMNSLKPEDPAVYYCAKDRRFWHKTWFAYGYDYWGQGTQVTVSS | low polyreactivity
QVQLVESWGGLVQAGGSLRLSCAASGRIFRNYVMGWYRQAPGKERELVAAISRSGGSTYYADSVKGRFTISRDNAKNTVYLQMNSLKPEDTAVYYCNADYATRRVSLNYGYWGQGTQVTVSS | high polyreactivity
QVQLVESWGGLVQAGGSLRLSCAASGRTFAYYAMRWYRQAPGKERELVAAISSGGRTNYADSVKGRFTISRDNAKNTVYLQMNSLKPEDTAVYYCARKASYQIYNGQYGGFGYGYWGQGTQVTVSS | high polyreactivity
QVQLVESWGGLVQAGGSLRLSCAASGRTFIRYTMGWYRQAPGKERELVASIRYSGASTSYADSVKGRFTISRDNAKNTVYLQMNSLKPEDTAVYYCAADRYWWWYNSPYSGMDYWGQGTQVTVSS | high polyreactivity
QVQLVESWGGLVQAGGSLRLSCAASGRTFYSNAMGWYRQAPGKERELVAAITSTDDSTYYADSVKGRFTISRDNAKNTVYLQMNSLKPEDTAVYYCNTDGLIAIRGLWWVEYDYWGQGTQVTVSS | low polyreactivity
QVQLVESWGGLVQAGGSLRLSCAASGSTFILYAMGGYRQAPGNERELVAAITSRGVSTYYADSVKGRFTISRDNAKNTVYLQMNSLKPEDTAVYNWAADQYQASYYYWGQGTQVTVSS | low polyreactivity
QVQLVESWGGLVQAGGSLRLSCAASGSTIIGYDMGWYRQAPGKVRELVAAISYSDGTYYADSVKGRFTISRDNAKNTFYLPMNSLKPEDTAVYYCAADSLYYRYDYWGQGTQVTVSW | low polyreactivity
